Data from publication PMC10184318, “The fission yeast cytokinetic ring component Fic1 promotes septum formation” (Biology Open, 2023).

B1: Fic1-MBP [S. pombe] / Cyk3-SH3-GST (aa1-66) [S. pombe] (parent complex)
chain 1: MSKNPLGTLVVRIWKAKNLPNKALVGKQSPYCVCRVGEVVKRTQTDKRSGQEPSWNAVLEFNIPSESYHIMKITVFHEGFRKHPHLIGDTVLSFEKAMKEELQSEWYELKNEFQFAGELSVQFKFIPTDPLYFDRASSKPVLQFPYSSVAALTPVPKKPSKPSKPRKKVPVSHPLPPTPPSREEHVSVPRESSLFTYEDDPLPSFPSPYMVDDYYTQDVFVSDNVNDYSYGVQNPTNPRLSVEDYDANHSSLPPVPPPHLILPTASSSQIFH
chain 2: MSIPKQLPCMVRALYAWPGEREGDLKFTEGDLIECLSIGDGKWWIGRHINTNTQGIFPSNFVHCLD

Variants of: B1
Experiment: in vitro binding assay (GST pull-down, Coomassie Blue-stained SDS-PAGE, band quantification); parent: 1; read off a plot

Row | response [A.U.] | Variant
1 | ~0.35 | chain 1 P174A, chain 1 P177A
2 | ~0.19 | chain 1 P176A, chain 1 P179A
